# Measurements: the supplement of paper PMC5998384
# What was measured:
# HeLa Kyoto [1] = assay: solubility in G1/S (NP-40 vs SDS abundance) (log2 ratio); higher = more soluble; conditions: cell cycle stage: G1/S
# HeLa Kyoto [2] = assay: solubility change mitosis vs G1/S (difference of NP-40 vs SDS log2 ratios) (log2 ratio difference); higher = more soluble in mitosis
# HeLa Kyoto [3] = assay: melting temperature (median over replicates), in situ; higher = more thermally stable
# 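For melting temperature (median over replicates), in situ in this document: HeLa Kyoto cells synchronized by double thymidine or nocodazole block, proteins quantified by TMT10plex mass spectrometry, three independent biological replicates.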
# 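For solubility change mitosis vs G1/S (difference of NP-40 vs SDS log2 ratios) in this document: synchronized HeLa Kyoto cells (double thymidine block for G1/S, nocodazole release for mitosis), protein amounts in NP-40 versus SDS lysates quantified by mass spectrometry, three biological replicates.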
# 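For solubility in G1/S (NP-40 vs SDS abundance) in this document: HeLa Kyoto cells arrested at G1/S by double thymidine block, proteins quantified by TMT10plex mass spectrometry in mild NP-40 versus SDS extracts, three biological replicates.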
# Sequence of NFYA (chain, as listed by the source): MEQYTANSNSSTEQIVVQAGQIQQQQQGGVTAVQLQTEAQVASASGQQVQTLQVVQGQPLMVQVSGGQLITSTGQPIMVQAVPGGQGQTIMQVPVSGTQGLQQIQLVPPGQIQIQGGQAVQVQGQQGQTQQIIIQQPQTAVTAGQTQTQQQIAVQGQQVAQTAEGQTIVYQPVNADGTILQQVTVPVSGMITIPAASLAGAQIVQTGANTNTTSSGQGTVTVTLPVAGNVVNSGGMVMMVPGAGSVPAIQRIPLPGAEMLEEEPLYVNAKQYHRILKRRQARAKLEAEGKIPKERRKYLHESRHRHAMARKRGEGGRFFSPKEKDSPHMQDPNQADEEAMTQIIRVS
Substance,solubility in G1/S (log2) (HeLa Kyoto [1]),solubility change mitosis (log2) (HeLa Kyoto [2]),melting temperature (HeLa Kyoto [3]; cell cycle stage: mitosis) [°C],melting temperature (HeLa Kyoto [3]; cell cycle stage: G1/S) [°C]
MELIQDTSRPPLEYVKGVPLIKYFAEALGPLQSFQARPDDLLISTYPKSGTTWVSQILDMIYQGGDLEKCHRAPIFMRVPFLEFKAPGIPSGMETLKDTPAPRLLKTHLPLALLPQTLLDQKVKVVYVARNAKDVAVSYYHFYHMAKVHPEPGTWDSFLEKFMVGEVSYGSWYQHVQEWWELSRTHPVLYLFYEDMKENPKREIQKILEFVGRSLPEETVDFVVQHTSFKEMKKNPMTNYTTVPQEFMDHSISPFMRKGMAGDWKTTFTVAQNERFDADYAEKMAGCSLSFRSEL [SULT1A1],0.0556,-0.0949,49.2,–
MFPRPLTPLAAPNGAEPLGRALRRAPLGRARAGLGGPPLLLPSMLMFAVIVASSGLLLMIERGILAEMKPLPLHPPGREGTAWRGKAPKPGGLSLRAGDADLQVRQDVRNRTLRAVCGQPGMPRDPWDLPVGQRRTLLRHILVSDRYRFLYCYVPKVACSNWKRVMKVLAGVLDSVDVRLKMDHRSDLVFLADLRPEEIRYRLQHYFKFLFVREPLERLLSAYRNKFGEIREYQQRYGAEIVRRYRAGAGPSPAGDDVTFPEFLRYLVDEDPERMNEHWMPVYHLCQPCAVHYDFVGSYERLEADANQVLEWVRAPPHVRFPARQAWYRPASPESLHYHLCSAPRALLQDVLPKYILDFSLFAYPLPNVTKEACQQ [CHST14],0.333,-0.0549,–,51.9
MRLAGPLRIVVLVVSVGVTWIVVSILLGGPGSGFPRIQQLFTSPESSVTAAPRARKYKCGLPQPCPEEHLAFRVVSGAANVIGPKICLEDKMLMSSVKDNVGRGLNIALVNGVSGELIEARAFDMWAGDVNDLLKFIRPLHEGTLVFVASYDDPATKMNEETRKLFSELGSRNAKELAFRDSWVFVGAKGVQNKSPFEQHVKNSKHSNKYEGWPEALEMEGCIPRRSTAS [FAM3A],-0.0403,-0.0146,52.8,51.9
MSGFNFGGTGAPTGGFTFGTAKTATTTPATGFSFSTSGTGGFNFGAPFQPATSTPSTGLFSLATQTPATQTTGFTFGTATLASGGTGFSLGIGASKLNLSNTAATPAMANPSGFGLGSSNLTNAISSTVTSSQGTAPTGFVFGPSTTSVAPATTSGGFSFTGGSTAQPSGFNIGSAGNSAQPTAPATLPFTPATPAATTAGATQPAAPTPTATITSTGPSLFASIATAPTSSATTGLSLCTPVTTAGAPTAGTQGFSLKAPGAASGTSTTTSTAATATATTTSSSSTTGFALNLKPLAPAGIPSNTAAAVTAPPGPGAAAGAAASSAMTYAQLESLINKWSLELEDQERHFLQQATQVNAWDRTLIENGEKITSLHREVEKVKLDQKRLDQELDFILSQQKELEDLLSPLEELVKEQSGTIYLQHADEEREKTYKLAENIDAQLKRMAQDLKDIIEHLNTSGAPADTSDPLQQICKILNAHMDSLQWIDQNSALLQRKVEEVTKVCEGRRKEQERSFRITFD [NUP62],0.32,0.107,51.7,51.8
MAENHCELLSPARGGIGAGLGGGLCRRCSAGLGALAQRPGSVSKWVRLNVGGTYFLTTRQTLCRDPKSFLYRLCQADPDLDSDKDETGAYLIDRDPTYFGPVLNYLRHGKLVINKDLAEEGVLEEAEFYNITSLIKLVKDKIRERDSKTSQVPVKHVYRVLQCQEEELTQMVSTMSDGWKFEQLVSIGSSYNYGNEDQAEFLCVVSKELHNTPYGTASEPSEKAKILQERGSRM [KCTD5],0.136,-0.0362,57.5,56.7
MSQATKRKHVVKEVLGEHIVPSDQQQIVRVLRTPGNNLHEVETAQGQRFLVSMPSKYRKNIWIKRGDFLIVDPIEEGEKVKAEISFVLCKDHVRSLQKEGFWPEAFSEVAEKHNNRNRQTQPELPAEPQLSGEESSSEDDSDLFVNTNRRQYHESEEESEEEEAA [EIF1AD],0.37,-0.0155,53.3,53.5
MSTASSSSSSSSSQTPHPPSQRMRRSAAGSPPAVAAAGSGNGAGGGGGVGCAPAAGAGRLLQPIRATVPYQLLRGSQHSPTRPPVAAAAASLGSLPGPGAARGPSPSSPTPPAAAAPAEQAPRAKGRPRRSPESHRRSSSPERRSPGSPVCRADKAKSQQVRTSSTIRRTSSLDTITGPYLTGQWPRDPHVHYPSCMKDKATQTPSCWAEEGAEKRSHQRSASWGSADQLKEQIAKLRQQLQRSKQSSRHSKEKDRQSPLHGNHITISHTQATGSRSVPMPLSNISVPKSSVSRVPCNVEGISPELEKVFIKENNGKEEVSKPLDIPDGRRAPLPAHYRSSSTRSIDTQTPSVQERSSSCSSHSPCVSPFCPPESQDGSPCSTEDLLYDRDKDSGSSSPLPKYASSPKPNNSYMFKREPPEGCERVKVFEEMASRQPISAPLFSCPDKNKVNFIPTGSAFCPVKLLGPLLPASDLMLKNSPNSGQSSALATLTVEQLSSRVSFTSLSDDTSTAGSMEASVQQPSQQQQLLQELQGEDHISAQNYVII [GLCCI1],0.4,-0.0403,54.4,53.7
MELHILEHRLQVASVAKESIPLFTYGLIKLAFLSSKTRCKFFSLTETPEDYTIIVDEEGFLELPSSEHLSVADATWLALNVVSGGGSFSSSQPIGVTKIAKSVIAPLADQNISVFMLSTYQTDFILVRERDLPFVTHTLSSEFTILRVVNGETVAAENLGITNGFVKPKLVQRPVIHPLSSPSNRFCVTSLDPDTLPAVATLLMDVMFYSNGVKDPMATGDDCGHIRFFSFSLIEGYISLVMDVQTQQRFPSNLLFTSASGELWKMVRIGGQPLGFDECGIVAQISEPLAAADIPAYYISTFKFDHALVPEENINGVISALKVSQAEKH [GATSL2],0.084,-0.149,57.8,56.4
MATSTGRWLLLRLALFGFLWEASGGLDSGASRDDDLLLPYPRARARLPRDCTRVRAGNREHESWPPPPATPGAGGLAVRTFVSHFRDRAVAGHLTRAVEPLRTFSVLEPGGPGGCAARRRATVEETARAADCRVAQNGGFFRMNSGECLGNVVSDERRVSSSGGLQNAQFGIRRDGTLVTGYLSEEEVLDTENPFVQLLSGVVWLIRNGSIYINESQATECDETQETGSFSKFVNVISARTAIGHDRKGQLVLFHADGQTEQRGINLWEMAEFLLKQDVVNAINLDGGGSATFVLNGTLASYPSDHCQDNMWRCPRQVSTVVCVHEPRCQPPDCHGHGTCVDGHCQCTGHFWRGPGCDELDCGPSNCSQHGLCTETGCRCDAGWTGSNCSEECPLGWHGPGCQRPCKCEHHCPCDPKTGNCSVSRVKQCLQPPEATLRAGELSFFTRTAWLALTLALAFLLLISTAANLSLLLSRAERNRRLHGDYAYHPLQEMNGEPLAAEKEQPGGAHNPFKD [NAGPA],0.327,-0.232,55.4,54.5
NFYA,-0.0285,-0.0439,58.1,58
